Where a chain is given by its changes, count along the chain named. Where two headings read alike, the source gives them in different places.
B1: hu326-2 E46K (antibody, V domains shown)
VH: QVQLVQSGSELKKPGASVKVSCKASGYTFTNYGMNWVRQAPGQGLKWMGWINNNNGEPTYAQGFRGRFVFSLDTSASTAYLQISSLKTEDTAVYFCARDVMDYWGQGTTVTVSS
VL: DIVLTQSPASLAVSPGQRATITCRASESVDNYGYSFMHWYQQKPGQPPKLLIYRASNLESGVPARFSGSGSRTDFTLTINPVEANDTANYYCQQSKEYPTFGGGTKVEIK
notes: mAb; constant regions not restated (hu326-1 is IgG2 / kappa); Back mutation to murine
B2: hu326-2 A16E (antibody, V domains shown)
VH: B1 VH with A16E, K46E
VL: B1 VL
notes: as for B1
B3: hu326-2 A76V (antibody, V domains shown)
VH: B1 VH with K46E, A76V
VL: B1 VL
notes: mAb; constant regions not restated (hu326-1 is IgG2 / kappa); Forward mutation to human
B4: hu326-2 F95Y (antibody, V domains shown)
VH: B1 VH with K46E, F95Y
VL: B1 VL
notes: as for B3
B5: hu326-2 G63D (antibody, V domains shown)
VH: B1 VH with K46E, G63D
VL: B1 VL
notes: as for B1
B6: hu326-2 S9P (antibody, V domains shown)
VH: B1 VH with S9P, K46E
VL: B1 VL
notes: as for B1
B7: hu326-2 S84N (antibody, V domains shown)
VH: B1 VH with K46E, S84N
VL: B1 VL
notes: as for B1
B8: hu326-2 S85N (antibody, V domains shown)
VH: B1 VH with K46E, S85N
VL: B1 VL
notes: as for B1
B9: hu326-2 T88N (antibody, V domains shown)
VH: B1 VH with K46E, T88N
VL: B1 VL
notes: as for B1
B10: hu326-3G1 (antibody, V domains shown)
VH: B1 VH with S9P, G63D, F95Y, T109L
VL: B1 VL
notes: Humanized mAb
B11: ch326 (antibody, human IgG2, V domains shown, not shown: a dimerising Fc or GST)
VH: QIQLVQSGPELKKPGETVKISCKASGYTFTNYGMNWVKQAPGKGLKWMGWINNNNGEPTYAEEFKGRFAFSLETSASTAYLQINNLKNEDTATYFCARDVMDYWGQGTSVTVSS
VL: DIVLTQSPASLAVSLGQRATISCRASESVDNYGYSFMHWYQQKPGQPPQLLIYRASNLESGIPARFSGSGSRTGFTLTINPVEADDVATYYCQQSKEYPTFGGGTKLEVKR
notes: domain: Ig kappa C-region; Murine VH and Vκ of mu326 on human IgG2 / kappa
B12: hu326-1 (antibody, IgG2, V domains shown, not shown: a dimerising Fc or GST)
VH: B1 VH with K46E
VL: B11 VL with L15P, S22T, Q49K, I62V, G74D, D85N, V87T, T89N, L107V, V109I
notes: domain: Ig kappa C-region; Initial humanized version, IgG2 / kappa
B13: Fab hu317-1_Vh / hu317-1_Vκ (Fab, V domains shown)
VH: QVQLQESGPGLVKPSETLSLTCTVSGFSLTSYGVHWIRQPPGKGLEWLGVIWAGGSTNYNPSLKSRLTISKDNSKSQVSLKMSSVTAADTAVYYCARAYGNYWYIDVWGQGTTVTVSS
VL: DIVMTQSPDSLAVSLGERATINCKASQSVSNDVAWYQQKPGQPPKLLINYAFHRFTGVPDRFSGSGYGTDFTLTISSLQAEDVAVYYCHQAYSSPYTFGGGTKLEIK
B14: Fab hu317-1_Vh / HU317-2_G100Q (Fab, V domains shown)
VH: B13 VH
VL: B13 VL with G100Q
B15: Fab hu317-2_K71V / hu317-1_Vκ (Fab, V domains shown)
VH: B13 VH with K71V
VL: B13 VL
B16: Fab hu317-2_L48I / hu317-1_Vκ (Fab, V domains shown)
VH: B13 VH with L48I
VL: B13 VL
B17: Fab hu317-2_L67V / hu317-1_Vκ (Fab, V domains shown)
VH: B13 VH with L67V
VL: B13 VL
B18: Fab hu317-2_M82L / hu317-1_Vκ (Fab, V domains shown)
VH: B13 VH with M82L
VL: B13 VL
B19: Fab hu317-2_N73T / hu317-1_Vκ (Fab, V domains shown)
VH: B13 VH with N73T
VL: B13 VL
B20: Fab hu317-2_S76N / hu317-1_Vκ (Fab, V domains shown)
VH: B13 VH with S76N
VL: B13 VL
B21: Fab hu317-2_V78F / hu317-1_Vκ (Fab, V domains shown)
VH: B13 VH with V78F
VL: B13 VL
B22: Fab hu317-3A / hu317-1_Vκ (Fab, V domains shown)
VH: B13 VH with L48I, L67V, K71V, N73T, S76N, V78F, M82L
VL: B13 VL
B23: hu317-4B5 (antibody, V domains shown)
VH: B13 VH with L48I, W52Y, L67V, N73T, S76N, M82L
VL: B13 VL with A25S, Q27E, G100Q
notes: Humanized mAb
B24: hu317-4B2 (antibody, V domains shown)
VH: B13 VH with L48I, W52Y, L67V, N73T, S76N, V78F, M82L
VL: B13 VL with A25S, Q27E, G100Q
notes: Humanized mAb

Tests used:
[1] = target: P3Z chimeric PD-1 receptor (human); assay: cell-based or functional assay
Sequence of P3Z chimeric PD-1 receptor (human) (chain, as listed by the source mutant limits assumed): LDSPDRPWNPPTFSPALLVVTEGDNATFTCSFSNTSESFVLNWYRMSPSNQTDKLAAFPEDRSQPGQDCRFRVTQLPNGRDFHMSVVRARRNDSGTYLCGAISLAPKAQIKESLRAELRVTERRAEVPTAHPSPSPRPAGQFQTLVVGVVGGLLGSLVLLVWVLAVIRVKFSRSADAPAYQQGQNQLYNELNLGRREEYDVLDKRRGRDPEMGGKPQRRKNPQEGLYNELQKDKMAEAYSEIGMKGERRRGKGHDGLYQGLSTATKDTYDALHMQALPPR

[2] = target: T1, human PD-1 expressed on cells (human, UniProt Q15116 25-288); assay: cell-based or functional assay
T1 sequence (Q15116 25-288): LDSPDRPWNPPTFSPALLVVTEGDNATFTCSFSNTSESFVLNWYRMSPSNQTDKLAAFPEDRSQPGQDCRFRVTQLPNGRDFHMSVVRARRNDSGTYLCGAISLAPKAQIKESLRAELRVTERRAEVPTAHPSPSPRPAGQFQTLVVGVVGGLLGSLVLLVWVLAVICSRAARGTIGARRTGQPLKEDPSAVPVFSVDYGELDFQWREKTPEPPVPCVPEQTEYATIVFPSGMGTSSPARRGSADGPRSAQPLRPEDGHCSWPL

[3] = target: T1, human PD-1 expressed on cells; assay: FACS on PD-1-expressing cells
[4] = target: T2, wild-type human PD-1 recombinant protein (PD-1/His or PD-1/Fc, not said which) (human, UniProt Q15116 21-168); assay: ELISA on coated recombinant PD-1
T2 construct: also called WT PD-1
T2 sequence (Q15116 21-168 limits assumed): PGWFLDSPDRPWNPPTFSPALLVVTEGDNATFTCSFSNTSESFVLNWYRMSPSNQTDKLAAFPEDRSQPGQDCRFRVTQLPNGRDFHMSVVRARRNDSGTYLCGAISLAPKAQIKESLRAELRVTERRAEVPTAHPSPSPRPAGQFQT

[5] = target: T1, human PD-1 expressed on cells; assay: FACS on PD-1-expressing cells; remark: listed apart in the source
[6] = target: P3Z chimeric PD-1 receptor (human); assay: cell-based or functional assay; remark: listed apart in the source
[7] = target: T1, human PD-1 expressed on cells; assay: cell-based or functional assay; remark: listed apart in the source
[8] = target: P3Z chimeric PD-1 receptor (human); assay: cell-based or functional assay; remark: listed apart in the source

Binder | IL-2 release in HuT78/P3Z, IC50 [1] [µg/mL] | IL-2 release in HuT78/P3Z, Max inhibition [1] [%] | IL-2 release in HuT78/PD-1, EC50 [2] [µg/mL] | IL-2 release in HuT78/PD-1, Top line [2] [pg/mL] | EC50 [3] [µg/mL] | IL-2 release in HuT78/P3Z, EC50 [8] [µg/mL] | IL-2 release in HuT78/P3Z, Max inhibition [8] [%] | other results
B1 | 0.079 | 95.2 | 0.259 | 1240 | 0.132 | – | – | –
B2 | 0.078 | 96.3 | 0.126 | 1050 | 0.155 | – | – | –
B3 | 0.071 | 96.7 | 0.112 | 1000 | 0.102 | – | – | –
B4 | 0.166 | 95.6 | 0.135 | 1030 | 0.097 | – | – | –
B5 | 0.064 | 96.4 | 0.12 | 1070 | 0.139 | – | – | –
B6 | 0.075 | 96 | 0.136 | 1020 | 0.145 | – | – | –
B7 | 0.06 | 96.5 | 0.126 | 1020 | 0.131 | – | – | –
B8 | 0.093 | 95.6 | 0.104 | 932 | 0.11 | – | – | –
B9 | 0.102 | 95.8 | – | – | 0.098 | – | – | –
B10 | – | – | – | – | – | – | – | EC50 [4]: 0.088 µg/mL
B11 | 0.074 | 93 | 0.135 | 993 | 0.118 | – | – | EC50 [5]: 0.072 µg/mL; Top MFI [5]: 163 MFI; Assay-2 IL-2 release, IC50 (HuT78/P3Z + HEK293/PD-L1) [6]: 0.12 µg/mL; Assay-2 IL-2 release, Max inhibition (HuT78/P3Z + HEK293/PD-L1) [6]: 81%; Assay-1 IL-2 release, EC50 (HuT78/PD-1 + HEK293/OS8/PD-L1) [7]: 0.074 µg/mL; Assay-1 IL-2 release, Top line (HuT78/PD-1 + HEK293/OS8/PD-L1) [7]: 1060 pg/mL
B12 | 0.087 | 92.4 | 0.213 | 987 | 0.317 | – | – | EC50 [5]: 0.117 µg/mL; Top MFI [5]: 129 MFI; Assay-2 IL-2 release, IC50 (HuT78/P3Z + HEK293/PD-L1) [6]: 0.1 µg/mL; Assay-2 IL-2 release, Max inhibition (HuT78/P3Z + HEK293/PD-L1) [6]: 84.4%; Assay-1 IL-2 release, EC50 (HuT78/PD-1 + HEK293/OS8/PD-L1) [7]: 0.112 µg/mL; Assay-1 IL-2 release, Top line (HuT78/PD-1 + HEK293/OS8/PD-L1) [7]: 1140 pg/mL
B13 | – | – | – | – | – | 0.3 | 98.8 | –
B14 | – | – | – | – | – | 0.27 | 98.9 | –
B15 | – | – | – | – | – | 0.48 | 96.5 | –
B16 | – | – | – | – | – | 0.37 | 98.5 | –
B17 | – | – | – | – | – | 0.3 | 98.6 | –
B18 | – | – | – | – | – | 0.27 | 98.5 | –
B19 | – | – | – | – | – | 0.31 | 98.3 | –
B20 | – | – | – | – | – | 0.28 | 98.6 | –
B21 | – | – | – | – | – | 0.38 | 98 | –
B22 | – | – | – | – | – | 0.35 | 79.7 | –
B23 | – | – | – | – | – | – | – | EC50 [4]: 0.057 µg/mL
B24 | – | – | – | – | – | – | – | EC50 [4]: 0.066 µg/mL
